For data set [1] the following is noted: at 65 C; cited from earlier work.
Data set [2] is described as follows: Crotonyl-CoA hydratase assay, NAD+ reduction at 340 nm. Type of data set: biochemical. The following applies: C-CoA, hydratase reaction; 70° C. As for the experimental part:
(§1) Crotonyl-CoA hydratase/(S)-3-Hydroxybutyryl-CoA dehydrogenase (Msed_0399). The enzyme was purified first using a Q-sepharose HiLoad 16/10 anion exchange column (GE Healthcare). The protein was loaded onto the column with 20 mM Tris, pH 8.0, and eluted with 20 mM Tris, 1 M NaCl, pH 8.0 using a linear elution gradient. Fractions containing Msed_0399 were confirmed with SDS-PAGE, collected and dialyzed into buffer for size exclusion chromatography (50 mM potassium phosphate, 150 mM NaCl, pH 7.0). The partially-purified protein was further separated on a HiLoad 26/600 Superdex 200 PG column, and the elution fractions containing Msed_0399 were collected, concentrated, and dialyzed into reaction buffer (100 mM MOPS, pH 7.5), and then either stored at 4° C. for immediate use or mixed with glycerol to 20% and stored at −20° C. Enzyme activity was measured spectrophotometrically at 70° C. by following NAD^+ reduction at 340 nm (extinction coeffienct at 340 nm=[…]) (Berg et al., 2007. Science 318:1782-1786). The assay mixture contained 20 mM MOPS (pH 7.0), 5 mM MgCl2, 2 mM NAD^+, 0.5 mM crotonyl-CoA or (S)-3-hydroxybutyryl-CoA, and purified enzyme. The reaction mixture was preheated for 2 min at 70° C. and the reaction initiated by addition of substrate.

The nature of data set [3]: (S)-3-Hydroxybutyryl-CoA dehydrogenase assay, NAD+ reduction at 340 nm. Type of data set: biochemical. The conditions noted are these: 3HB-CoA, dehydrogenase reaction; 70° C. As for the experimental part:
as §1

Substrate in data set [4]: C/C=C/C(=O)SCCNC(=O)CCNC(=O)[C@H](O)C(C)(C)COP(=O)(O)OP(=O)(O)OC[C@H]1O[C@@H](n2cnc3c(N)ncnc32)[C@H](O)[C@@H]1OP(=O)(O)O
As to the kind of experiment: crotonyl-CoA hydratase reaction of Msed_0399, NAD+ reduction at 340 nm. Type of data set: biochemical, Metallosphaera sedula. The following applies: other: Msed_0399 (C-CoA), 70° C., pH 7.0. The text has this:
(§2) The crotonyl-CoA hydratase/(S)-3-hydroxybutyrl-CoA dehydrogenase activity of a polypeptide may be determined by routine methods known in the art. An example of such a polypeptide includes an amino acid sequence encoded by coding sequence Msed_0399 of Genbank accession NC_009440 and disclosed at SEQ ID NO:16.
(§3) Heterologous expression of M. sedula genes in E. coli. Msed_0406, Msed_1321, Msed_0399, and Msed_0656 were amplified from genomic DNA using primers from IDT Technologies (Coralville, Iowa). Msed_0406 was cloned into pET46-Ek/LIC with an N-terminal His6 tag, as described in Example 1. Msed_1321 was cloned with an N-terminal His6 tag into a modified pETA vector, into which the anaerobic hya promoter from E. coli had been inserted to allow for anaerobically-regulated expression (Sun et al., 2010. PLoS One 5:e10526). Msed_0399 was cloned into pET21b without a His-tag, and Msed_0656 was cloned into pCDF-Ek/LIC with an N-terminal His6 tag. All four constructs were individually cloned into NovaBlue GigaSingles E. coli competent cells and selected by growth on LB-agar supplemented with antibiotic. Sequences were confirmed by Eton Biosciences, Inc. (Durham, N.C.). Next, the plasmids were transformed into E. coli Rosetta 2 (DE3) cells for protein expression. Rosetta strains containing pET46-0406, pET21b-0399, and pCDF-0656 were grown and expressed aerobically at 37° C. for 16 h in Studier's auto-inducing medium ZYM-5052 (Studier, 2005. Protein Expression and Purification 41:207-234). Rosetta cells containing pETA-1321 plasmid were grown in a 2 L Applikon bioreactor (37° C., 800 rpm, pH 6.7, 0.5 slpm air) in Studier's non-inducing medium ZYM-505 with 0.5 mM FeCl3. […]
(§4) Crotonyl-CoA hydratase/(S)-3-Hydroxybutyryl-CoA dehydrogenase (Msed_0399). […] Enzyme activity was measured spectrophotometrically at 70° C. by following NAD^+ reduction at 340 nm (extinction coeffienct at 340 nm=[…]) (Berg et al., 2007. Science 318:1782-1786). […]

Substrate in data set [5]: C[C@H](O)CC(=O)SCCNC(=O)CCNC(=O)[C@H](O)C(C)(C)COP(=O)(O)OP(=O)(O)OC[C@H]1O[C@@H](n2cnc3c(N)ncnc32)[C@H](O)[C@@H]1OP(=O)(O)O
The data set can be described thus: (S)-3-hydroxybutyryl-CoA dehydrogenase reaction of Msed_0399, NAD+ reduction at 340 nm. Format: biochemical, Metallosphaera sedula. The following applies: other: Msed_0399 (3HB-CoA), 70° C., pH 7.0.
Text: as §2, §3, §4

A short description of data set [6]: Acetoacetyl-CoA β-ketothiolase discontinuous DTNB assay. Format: biochemical. The conditions noted are these: 70° C.
Substrate in data set [7]: CC(=O)CC(=O)SCCNC(=O)CCNC(=O)[C@H](O)C(C)(C)COP(=O)(O)OP(=O)(O)OC[C@H]1O[C@@H](n2cnc3c(N)ncnc32)[C@H](O)[C@@H]1OP(=O)(O)O
The data set can be described thus: purified protein, by the assay type. The conditions noted are these: other: Msed_0656, 70° C., pH 7.5; 70.0 °C.

For data set [8] the following is noted: Scherf et al., 1993; cited from earlier work.
Data set [9] can be described thus: 4-hydroxybutyryl-CoA dehydratase coupled spectrophotometric assay. Format: biochemical. The following applies: 70° C. As for the experimental part: (§5) 4-hydroxybutyryl-CoA dehydratase (Msed_1321). The enzyme was purified using a 5 ml Bio-Scale Mini Profinity IMAC cartridge (Bio-Rad). The soluble, heat-treated lysate was loaded onto the column with binding buffer (50 mM Tris, 300 mM NaCl, 3.5 mM DTT, 20 mM imidazole, pH 8.0) and the his-tagged enzyme removed with elution buffer (50 mM Tris, 300 mM NaCl, 3.5 mM DTT, 500 mM imidazole, pH 8.0). The fraction collector was positioned inside the anaerobic chamber, and fractions containing enzyme were collected, concentrated, and dialyzed into reaction buffer (100 mM potassium phosphate, pH 7.5, 1 mM DTT). The enzyme solution was either stored at room temperature inside the anaerobic chamber for immediate use or mixed with glycerol to 20% and stored at −20° C. in a sealed vacuum dessicator. Enzyme activity was measured aerobically in a coupled spectrophotometric assay at 70° C. The assay mixture contained 20 mM sodium phosphate, 5 mM MgCl2, 2 mM 4HB, 2 mM ATP, 1 mM CoA, 2 mM NAD^+, 1 mM DTT, 1 mg/ml purified Msed_0406, and 42 ng/ml Msed_0399. The reaction mixture was pre-heated for 5 min at 70° C. to allow accumulation of 4HB-CoA, and then initiated by addition of purified Msed_1321. For the oxygen-sensitivity assay, Msed_1321 was washed with 100 mM potassium phosphate, pH 7.5, to remove any DTT from the reaction buffer. […]

Data set [10] can be described thus: Oxygen-sensitivity assay of 4-hydroxybutyryl-CoA dehydratase. The conditions noted are these: exposed to air. As for the experimental part:
as §5

On to `O=C(O)O` [carbonic acid], for which the “apparent pKa of the ionization to bicarbonate” value in data set [1] is “about 6.3”.

B1: Metallosphaera sedula crotonyl-CoA hydratase/(S)-3-hydroxybutyryl-CoA dehydrogenase Msed_0399, SEQ ID NO:16, recombinant (Metallosphaera sedula DSM 5348) (protein)
chain: MKVTVIGSGVMGHGIAELAAIAGNEVWMNDISTEILQQAMERIKWSLSKLRESGSLKEGVEQVLARIHPETDQAQALKGSDFVIEAVKEDLELKRTIFRNAEAHASPSAVLATNTSSLPISEIASVLKSPQRVVGMHFFNPPVLMPLVEIVRGKDTSDEVVKTTAEMAKSMNKETIVVKDVPGFFVNRVLLRIMEAGCYLVEKGIASIQEVDSSAIEELGFPMGVFLLADYTGLDIGYSVWKAVTARGFKAFPCSSTEKLVSQGKLGVKSGSGYYQYPSPGKFVRPTLPSTSKKLGRYLISPAVNEVSYLLREGIVGKDDAEKGCVLGLGLPKGILSYADEIGIDVVVNTLEEMRQTSGMDHYSPDPLLLSMVKEGKLGRKSGQGFHTYAHEEAKYSTIVVRVEPPLAWIVLNRPTRYNAINGDMIREINQALDSLEEREDVRVIAITGQGRVFSAGADVTEFGSLTPVKAMIASRKFHEVFMKIQFLTKPVIAVINGLALGGGMELALSADFRVASKTAEMGQPEINLGLIPGGGGTQRLSRLSGRKGLELVLTGRRVKAEEAYRLGIVEFLAEPEELESEVRKLANAIAEKSPLAVASAKLAYKLGEETHIWTGTSLEASLFGLLFSTKDFEEGVRAFLEKRKPNFRGE
A word on the Vmax: it is the top rate of the reaction or transport when substrate is in excess. What is called Km is the concentration of substrate that gives half-maximal velocity. In general, kcat refers to the number of substrate molecules converted per active site and unit of time at saturation. On to B1, for which the Vmax was 20 µmol/min/mg in data set [2], 16 µmol/min/mg in [3], 20 µmol/min/mg in [4] and 16 µmol/min/mg in [5]. In addition, the Km in [4] amounted to 70 µM; in data set [5], 60 µM. Also, the kcat in data set [4] is 19 s⁻¹; in data set [5] it was 15 s⁻¹.

B2: Metallosphaera sedula acetoacetyl-CoA β-ketothiolase Msed_0656, SEQ ID NO:17, recombinant (Metallosphaera sedula DSM 5348) (protein)
chain: MPDVYIVSAVRTPIGRFGGSLKSVKPQMLGAIAIKEALRRANTDPSRVELTIMGNVLRSGHGQDLARQAALLAGIPWEVDGYCVDMVCSSGMMGVTNAAQMIKSGDADVVVAGGMESMSQSMLAVNSEVRWGVKFLSGKSLNFIDTMLVDGLTDPFNLKLMGQEADMVARERDISRRELDEVAFESHRRAHQAWEKGLFKSEVIPVNLDEGKLERDEGIRPDTTMEKLSSLKPAFTENGYHTAGNSSQISDGAVAMVLMSEKAVKEFGVDPVAKILGYSWVGIESWRFTEAPLYSVRKLLTRLNMNITQFDYFENNEAFAVNNVLFHRYLGVPYDQLNVFGGAIALGHPIGASGARIMVTLLNVLSKMNATRGIASICHGVGGSTAIALELLRPL
Regarding B2, the maximum rate (Vmax) in data set [6] is 1400 µmol/min/mg. For the same molecule, in data set [7], the Michaelis constant (Km) was found to be 180 µM, the Vmax was found to be 1400 µmol/min/mg and the kcat was 1000 s⁻¹.

B3: clostridal homolog: 4-hydroxybutyryl-CoA dehydratase from Clostridium aminobutyricum (protein, UniProt P55792 1-490, looked up)
4-hydroxybutyryl-CoA …: MLMTAEQYIESLRKLNTRVYMFGEKIENWVDHPMIRPSINCVAMTYELAQDPQYADLMTTKSNLIGKTINRFANLHQSTDDLRKKVKMQRLLGQKTASCFQRCVGMDAFNAVFSTTYEIDQKYGTNYHKNFTEYLKYIQENDLIVDGAMTDPKGDRGLAPSAQKDPDLFLRIVEKREDGIVVRGAKAHQTGSINSHEHIIMPTIAMTEADKDYAVSFACPSDADGLFMIYGRQSCDTRKMEEGADIDLGNKQFGGQEALVVFDNVFIPNDRIFLCQEYDFAGMMVERFAGYHRQSYGGCKVGVGDVVIGAAALAADYNGAQKASHVKDKLIEMTHLNETLYCCGIACSAEGYPTAAGNYQIDLLLANVCKQNITRFPYEIVRLAEDIAGGLMVTMPSEADFKSETVVGRDGETIGDFCNKFFAAAPTCTTEERMRVLRFLENICLGASAVGYRTESMHGAGSPQAQRIMIARQGNINAKKELAKAIAGIK
On to B3, for which the “time to irreversible inactivation when exposed to air” value in data set [8] is approximately 25 min.

B4: Msed_1321: M. sedula 4-hydroxybutyryl-CoA dehydratase, SEQ ID NO:15 (protein, listed as Metallosphaera sedula)
chain: MVVRTGEQYLQSISNRSKVEIYVMGREVKDVTKHPFLKPSVMSFKATFDAAWEEDTKELGRAWSPYLEEEINRFNHIHRSPDDLAAKVKLLRKLSHKTGACFQRCVGWDSLNTLHIVTTMMAKKGKTEVRDRFVEYLKYVQKNDLALAGAMTDAKGIRNLKPSQQPNKNAYLRITEVTKDGIYVSGAKANITGVAATEEMVVLPTRAMGPEDKDYAVAFAIPTDTEGVKIVVGRQLNDARRMEEGEIDGLPYFYNHEGLVIFDNVFVPMNRVFLAGEWEYTGTLVEIFSAYHRQGYGGCKAGLGDVIIGASADLAKQIGVDRASHVQDKLTEMIFLTETMYSAGIAASLNAVKMCDNCWWVNPMHANVTKHLVARFPSQIAQLSIDLAGGIVGTAPSEWDLKNPKLKEYISRYLQGAEDFTAEDRLRMVRLVENVSMGVAFQIESVHGAGSPAAQRIMFSRLYDLNFAQEVAKKLAGRKSEVKFTSKAEPWRESQSEAEAKEAGLKS
B4: in data set [9], the Vmax was 2.2 µmol/min/mg. For the same molecule, in data set [10], the “duration of initial activation upon exposure to air” value is recorded as “about 15 hours”.

Values taken from patent US10227617B2, “Sequestration of carbon dioxide with hydrogen to useful products” (UNIVERSITY OF GEORGIA RESEARCH FOUNDATION, INC., priority 2012, dated 2019).
